Laboratory results as given in article PMC6224390.

Target: BG505 SOSIP trimer (HIV-1 (BG505)) (UniProt Q2N0S6)
Assay: SEC-MALS

“BG505 SOSIP trimer (from UniProt Q2N0S6 1-860; Q2N0S6 1-860) (complex)” was tested. Which stoichiometry N did it give?
The stoichiometry N was 3.
